Measurements from IntAct's records for PubMed 35512704.

B1: Speckle-type POZ protein (Homo sapiens), O43791 (parent)
chain: MSRVPSPPPPAEMSSGPVAESWCYTQIKVVKFSYMWTINNFSFCREEMGEVIKSSTFSSGANDKLKWCLRVNPKGLDEESKDYLSLYLLLVSCPKSEVRAKFKFSILNAKGEETKAMESQRAYRFVQGKDWGFKKFIRRDFLLDEANGLLPDDKLTLFCEVSVVQDSVNISGQNTMNMVKVPECRLADELGGLWENSRFTDCCLCVAGQEFQAHKAILAARSPVFSAMFEHEMEESKKNRVEINDVEPEVFKEMMCFIYTGKAPNLDKMADDLLAAADKYALERLKVMCEDALCSNLSVENAAEILILADLHSADQLKTQAVDFINYHASDVLETSGWKSMVVSHPHLVAEAYRSLASAQCPFLGPPRKRLKQS
partner: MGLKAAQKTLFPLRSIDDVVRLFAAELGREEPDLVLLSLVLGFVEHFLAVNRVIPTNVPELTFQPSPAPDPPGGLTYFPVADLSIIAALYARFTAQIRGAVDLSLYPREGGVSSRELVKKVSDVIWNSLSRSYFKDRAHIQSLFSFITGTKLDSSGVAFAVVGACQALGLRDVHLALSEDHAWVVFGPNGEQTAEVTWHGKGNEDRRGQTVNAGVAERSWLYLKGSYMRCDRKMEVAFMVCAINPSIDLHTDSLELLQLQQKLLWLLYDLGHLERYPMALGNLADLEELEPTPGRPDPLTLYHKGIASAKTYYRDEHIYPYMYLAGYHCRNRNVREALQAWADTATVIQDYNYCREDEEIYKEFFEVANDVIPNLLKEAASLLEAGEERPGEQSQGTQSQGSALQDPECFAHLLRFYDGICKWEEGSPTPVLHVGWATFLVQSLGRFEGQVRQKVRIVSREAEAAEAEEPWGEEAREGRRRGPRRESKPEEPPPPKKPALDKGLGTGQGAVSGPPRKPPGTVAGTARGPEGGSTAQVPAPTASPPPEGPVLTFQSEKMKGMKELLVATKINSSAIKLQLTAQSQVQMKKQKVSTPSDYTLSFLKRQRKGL
B2: Speckle-type POZ protein (Homo sapiens), O43791 (parent)
chain: B1 chain
partner: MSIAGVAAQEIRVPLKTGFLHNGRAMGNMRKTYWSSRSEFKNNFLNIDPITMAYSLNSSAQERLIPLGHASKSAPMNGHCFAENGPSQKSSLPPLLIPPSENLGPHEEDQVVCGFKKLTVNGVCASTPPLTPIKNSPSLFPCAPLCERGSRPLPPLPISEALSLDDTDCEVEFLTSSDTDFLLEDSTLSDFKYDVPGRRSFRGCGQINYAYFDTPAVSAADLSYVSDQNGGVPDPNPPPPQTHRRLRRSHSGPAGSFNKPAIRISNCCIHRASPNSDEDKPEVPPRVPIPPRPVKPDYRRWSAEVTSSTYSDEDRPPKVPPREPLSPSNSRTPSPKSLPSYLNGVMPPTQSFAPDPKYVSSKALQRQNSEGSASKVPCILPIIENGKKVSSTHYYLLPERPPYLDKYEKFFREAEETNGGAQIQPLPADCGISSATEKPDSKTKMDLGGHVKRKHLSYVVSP
B3: Speckle-type POZ protein (Homo sapiens), O43791 (parent)
chain: B1 chain
partner: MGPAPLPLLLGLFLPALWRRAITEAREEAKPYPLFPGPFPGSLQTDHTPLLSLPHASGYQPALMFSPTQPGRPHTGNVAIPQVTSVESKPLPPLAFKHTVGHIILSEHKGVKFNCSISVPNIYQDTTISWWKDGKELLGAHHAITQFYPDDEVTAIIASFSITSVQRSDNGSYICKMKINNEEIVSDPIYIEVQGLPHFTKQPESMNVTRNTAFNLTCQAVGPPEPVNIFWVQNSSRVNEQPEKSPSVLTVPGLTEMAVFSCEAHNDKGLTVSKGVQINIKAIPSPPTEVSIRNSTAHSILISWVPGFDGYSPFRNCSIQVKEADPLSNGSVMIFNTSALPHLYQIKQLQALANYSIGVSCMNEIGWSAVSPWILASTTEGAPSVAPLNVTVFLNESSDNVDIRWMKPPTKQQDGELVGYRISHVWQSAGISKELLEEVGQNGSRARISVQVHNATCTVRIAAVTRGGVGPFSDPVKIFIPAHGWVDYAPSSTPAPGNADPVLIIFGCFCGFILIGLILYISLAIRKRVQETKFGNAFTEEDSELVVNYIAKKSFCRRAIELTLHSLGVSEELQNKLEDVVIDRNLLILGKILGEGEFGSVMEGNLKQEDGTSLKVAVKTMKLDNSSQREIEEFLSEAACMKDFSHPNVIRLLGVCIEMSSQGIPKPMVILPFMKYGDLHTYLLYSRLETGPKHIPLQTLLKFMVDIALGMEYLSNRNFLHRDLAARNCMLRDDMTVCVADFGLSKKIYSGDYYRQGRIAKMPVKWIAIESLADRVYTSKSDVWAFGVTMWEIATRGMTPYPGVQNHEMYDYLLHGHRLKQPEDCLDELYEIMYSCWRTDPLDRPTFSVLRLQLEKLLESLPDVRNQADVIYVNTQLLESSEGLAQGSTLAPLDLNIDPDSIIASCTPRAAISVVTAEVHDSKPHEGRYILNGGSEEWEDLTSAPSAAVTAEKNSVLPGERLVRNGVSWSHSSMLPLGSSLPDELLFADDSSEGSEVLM
B4: Speckle-type POZ protein (Homo sapiens), O43791 (parent)
chain: B1 chain
partner: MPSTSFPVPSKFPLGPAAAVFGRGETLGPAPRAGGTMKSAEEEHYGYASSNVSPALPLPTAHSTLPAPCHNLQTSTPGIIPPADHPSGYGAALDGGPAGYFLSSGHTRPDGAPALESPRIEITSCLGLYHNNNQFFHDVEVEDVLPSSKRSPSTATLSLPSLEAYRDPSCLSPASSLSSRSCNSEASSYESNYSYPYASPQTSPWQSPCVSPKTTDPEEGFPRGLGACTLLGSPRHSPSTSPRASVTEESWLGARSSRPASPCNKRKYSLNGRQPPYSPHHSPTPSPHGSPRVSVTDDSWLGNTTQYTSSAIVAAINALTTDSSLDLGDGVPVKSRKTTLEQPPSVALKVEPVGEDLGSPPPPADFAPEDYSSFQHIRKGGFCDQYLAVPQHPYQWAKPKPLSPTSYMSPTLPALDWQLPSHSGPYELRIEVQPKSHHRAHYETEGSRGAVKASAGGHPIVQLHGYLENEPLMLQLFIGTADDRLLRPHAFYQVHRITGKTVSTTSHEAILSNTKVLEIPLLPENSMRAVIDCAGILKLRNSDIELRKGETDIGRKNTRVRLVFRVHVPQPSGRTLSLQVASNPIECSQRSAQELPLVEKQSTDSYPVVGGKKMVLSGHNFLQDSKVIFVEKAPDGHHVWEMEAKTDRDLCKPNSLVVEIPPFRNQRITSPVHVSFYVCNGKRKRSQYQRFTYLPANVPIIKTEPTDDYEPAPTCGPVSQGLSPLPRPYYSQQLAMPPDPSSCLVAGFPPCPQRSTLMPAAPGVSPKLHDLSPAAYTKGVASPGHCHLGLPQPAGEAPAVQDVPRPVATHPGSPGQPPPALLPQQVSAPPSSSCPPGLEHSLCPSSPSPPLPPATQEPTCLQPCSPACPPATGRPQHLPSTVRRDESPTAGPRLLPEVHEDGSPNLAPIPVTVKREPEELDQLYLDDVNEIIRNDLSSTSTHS
B5: Speckle-type POZ protein (Homo sapiens), O43791 (parent)
chain: B1 chain
partner: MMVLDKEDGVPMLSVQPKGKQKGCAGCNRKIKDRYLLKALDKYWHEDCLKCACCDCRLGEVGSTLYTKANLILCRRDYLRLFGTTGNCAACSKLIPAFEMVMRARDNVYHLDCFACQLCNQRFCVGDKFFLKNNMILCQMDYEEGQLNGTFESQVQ
B6: Speckle-type POZ protein (Homo sapiens), O43791 (parent)
chain: B1 chain
partner: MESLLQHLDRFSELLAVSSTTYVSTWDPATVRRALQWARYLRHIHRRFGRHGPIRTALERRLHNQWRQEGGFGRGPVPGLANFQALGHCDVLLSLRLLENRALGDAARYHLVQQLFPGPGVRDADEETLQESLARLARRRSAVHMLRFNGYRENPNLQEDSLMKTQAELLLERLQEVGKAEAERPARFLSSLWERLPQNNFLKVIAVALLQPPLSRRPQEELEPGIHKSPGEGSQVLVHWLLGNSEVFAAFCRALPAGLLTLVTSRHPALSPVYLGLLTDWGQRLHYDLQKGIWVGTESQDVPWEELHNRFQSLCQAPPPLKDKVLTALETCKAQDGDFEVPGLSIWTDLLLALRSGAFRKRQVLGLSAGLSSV
B7: Speckle-type POZ protein (Homo sapiens), O43791 (parent)
chain: B1 chain
partner: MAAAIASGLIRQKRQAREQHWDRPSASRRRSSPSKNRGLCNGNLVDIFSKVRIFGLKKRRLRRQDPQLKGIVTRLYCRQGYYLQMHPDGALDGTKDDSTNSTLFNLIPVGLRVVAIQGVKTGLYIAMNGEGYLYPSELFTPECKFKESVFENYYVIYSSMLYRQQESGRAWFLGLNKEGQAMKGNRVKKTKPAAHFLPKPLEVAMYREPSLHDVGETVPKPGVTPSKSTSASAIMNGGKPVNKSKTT

Variants of: B1
Conditions: with men1_human MEN1, O00255

Row | effect of a mutation on the interaction | Variant
1 | with no effect | Y87C

Variants of: B1
Conditions: with men1_human MEN1, O00255
Remark: another data set of the same source

Row | effect of a mutation on the interaction | Variant
2 | with no effect | F102C

Variants of: B2
Conditions: with errfi_human ERRFI1, Q9UJM3

Row | effect of a mutation on the interaction | Variant
3 | with no effect | F133V

Variants of: B2
Conditions: with errfi_human ERRFI1, Q9UJM3
Remark: another data set of the same source

Row | effect of a mutation on the interaction | Variant
4 | with no effect | F133L

Variants of: B2
Conditions: with errfi_human ERRFI1, Q9UJM3
Remark: another data set of the same source

Row | effect of a mutation on the interaction | Variant
5 | with no effect | Y87C

Variants of: B2
Conditions: with errfi_human ERRFI1, Q9UJM3
Remark: another data set of the same source

Row | effect of a mutation on the interaction | Variant
6 | with no effect | F102C

Variants of: B3
Conditions: with mertk_human MERTK

Row | effect of a mutation on the interaction | Variant
7 | with no effect | F102C

Variants of: B3
Conditions: with mertk_human MERTK
Remark: another data set of the same source

Row | effect of a mutation on the interaction | Variant
8 | with no effect | Y87C

Variants of: B3
Conditions: with mertk_human MERTK
Remark: another data set of the same source

Row | effect of a mutation on the interaction | Variant
9 | with no effect | F133V

Variants of: B3
Conditions: with mertk_human MERTK
Remark: another data set of the same source

Row | effect of a mutation on the interaction | Variant
10 | with no effect | F133L

Variants of: B4
Conditions: with nfac1_human NFATC1, O95644

Row | effect of a mutation on the interaction | Variant
11 | with no effect | F133V

Variants of: B4
Conditions: with nfac1_human NFATC1, O95644
Remark: another data set of the same source

Row | effect of a mutation on the interaction | Variant
12 | with no effect | F133L

Variants of: B4
Conditions: with nfac1_human NFATC1, O95644
Remark: another data set of the same source

Row | effect of a mutation on the interaction | Variant
13 | with no effect | Y87C

Variants of: B4
Conditions: with nfac1_human NFATC1, O95644
Remark: another data set of the same source

Row | effect of a mutation on the interaction | Variant
14 | with no effect | F102C

Variants of: B5
Conditions: with rbtn1_human LMO1, P25800

Row | effect of a mutation on the interaction | Variant
15 | with no effect | F102C

Variants of: B5
Conditions: with rbtn1_human LMO1, P25800
Remark: another data set of the same source

Row | effect of a mutation on the interaction | Variant
16 | with no effect | F133V

Variants of: B5
Conditions: with rbtn1_human LMO1, P25800
Remark: another data set of the same source

Row | effect of a mutation on the interaction | Variant
17 | with no effect | F133L

Variants of: B5
Conditions: with rbtn1_human LMO1, P25800
Remark: another data set of the same source

Row | effect of a mutation on the interaction | Variant
18 | with no effect | Y87C

Variants of: B6
Conditions: with fancf_human FANCF

Row | effect of a mutation on the interaction | Variant
19 | causing an interaction | Y87C

Variants of: B6
Conditions: with fancf_human FANCF
Remark: another data set of the same source

Row | effect of a mutation on the interaction | Variant
20 | with no effect | F102C

Variants of: B6
Conditions: with fancf_human FANCF
Remark: another data set of the same source

Row | effect of a mutation on the interaction | Variant
21 | with no effect | F133V

Variants of: B6
Conditions: with fancf_human FANCF
Remark: another data set of the same source

Row | effect of a mutation on the interaction | Variant
22 | with no effect | F133L

Variants of: B7
Conditions: with fgf14_human FGF14, Q92915

Row | effect of a mutation on the interaction | Variant
23 | with no effect | F102C

Variants of: B7
Conditions: with fgf14_human FGF14, Q92915
Remark: another data set of the same source

Row | effect of a mutation on the interaction | Variant
24 | with no effect | F133V
